Data as given in the supplement of paper PMC10065799, “High-throughput profiling of sequence recognition by tyrosine kinases and SH2 domains using bacterial peptide display” (eLife, 2023).

What was measured:
[1] = system: AncSZ; test: phosphorylation enrichment, bacterial display (enrichment ratio); higher = better substrate or ligand; peptides without Tyr show the background
[2] = biological target: EPHB1 (UniProt P54762); test: as above
[3] = biological target: EPHB2 (UniProt P29323); test: as above
Sequence of EPHB2 (P29323 whole entry, looked up): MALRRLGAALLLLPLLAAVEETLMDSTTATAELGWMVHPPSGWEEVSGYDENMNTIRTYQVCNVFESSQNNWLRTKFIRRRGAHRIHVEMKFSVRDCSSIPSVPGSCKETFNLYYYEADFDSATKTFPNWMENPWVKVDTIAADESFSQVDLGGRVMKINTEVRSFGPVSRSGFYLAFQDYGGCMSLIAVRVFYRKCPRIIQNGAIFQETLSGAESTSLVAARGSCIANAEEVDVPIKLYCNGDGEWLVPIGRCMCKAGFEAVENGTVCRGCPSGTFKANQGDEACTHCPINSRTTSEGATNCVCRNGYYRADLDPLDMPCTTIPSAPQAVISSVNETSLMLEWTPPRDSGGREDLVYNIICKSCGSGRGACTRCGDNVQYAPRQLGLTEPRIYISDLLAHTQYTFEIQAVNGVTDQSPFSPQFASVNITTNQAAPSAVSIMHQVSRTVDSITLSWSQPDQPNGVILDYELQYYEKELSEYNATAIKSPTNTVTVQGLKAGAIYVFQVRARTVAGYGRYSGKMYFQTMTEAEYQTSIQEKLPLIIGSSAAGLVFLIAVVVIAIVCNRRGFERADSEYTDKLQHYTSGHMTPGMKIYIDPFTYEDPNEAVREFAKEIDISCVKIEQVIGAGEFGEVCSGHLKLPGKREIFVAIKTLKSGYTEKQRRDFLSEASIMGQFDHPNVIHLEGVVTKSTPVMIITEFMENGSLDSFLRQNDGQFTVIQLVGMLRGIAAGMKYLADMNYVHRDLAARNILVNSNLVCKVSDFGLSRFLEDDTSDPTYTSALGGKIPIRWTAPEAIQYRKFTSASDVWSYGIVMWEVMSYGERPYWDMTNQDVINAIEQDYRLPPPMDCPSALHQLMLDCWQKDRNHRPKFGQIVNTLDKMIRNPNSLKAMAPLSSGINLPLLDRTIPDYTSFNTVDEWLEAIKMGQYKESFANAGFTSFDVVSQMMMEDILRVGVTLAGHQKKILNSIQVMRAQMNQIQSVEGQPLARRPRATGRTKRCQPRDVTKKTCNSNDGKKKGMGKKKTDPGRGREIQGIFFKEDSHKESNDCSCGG

[4] = biological target: FGFR1 (UniProt P11362); test: as above
[5] = biological target: FGFR3 (UniProt P22607); test: as above
[6] = system: Fer (mouse); test: as above
[7] = biological target: Fes (UniProt P07332); test: as above
Sequence of Fes (P07332 whole entry, looked up): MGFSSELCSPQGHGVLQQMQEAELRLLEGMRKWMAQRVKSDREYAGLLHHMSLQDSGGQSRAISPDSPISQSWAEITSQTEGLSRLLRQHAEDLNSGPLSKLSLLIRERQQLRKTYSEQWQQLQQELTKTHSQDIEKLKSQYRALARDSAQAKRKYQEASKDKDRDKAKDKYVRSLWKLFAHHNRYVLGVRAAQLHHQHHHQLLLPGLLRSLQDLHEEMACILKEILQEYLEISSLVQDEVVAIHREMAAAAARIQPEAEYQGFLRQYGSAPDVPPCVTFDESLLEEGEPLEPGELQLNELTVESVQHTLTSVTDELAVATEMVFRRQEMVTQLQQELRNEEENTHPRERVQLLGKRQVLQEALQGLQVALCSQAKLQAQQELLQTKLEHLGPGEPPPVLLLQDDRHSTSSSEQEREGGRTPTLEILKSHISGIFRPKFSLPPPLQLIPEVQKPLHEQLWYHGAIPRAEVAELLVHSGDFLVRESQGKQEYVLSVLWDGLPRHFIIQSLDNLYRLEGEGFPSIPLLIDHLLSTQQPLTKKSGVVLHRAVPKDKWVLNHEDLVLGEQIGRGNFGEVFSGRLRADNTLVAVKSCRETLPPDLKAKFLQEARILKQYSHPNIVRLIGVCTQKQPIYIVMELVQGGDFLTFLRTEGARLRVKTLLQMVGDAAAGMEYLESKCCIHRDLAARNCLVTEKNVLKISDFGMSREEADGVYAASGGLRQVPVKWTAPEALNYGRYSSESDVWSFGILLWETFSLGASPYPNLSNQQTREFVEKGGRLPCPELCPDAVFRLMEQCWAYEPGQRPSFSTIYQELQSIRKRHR

[8] = biological target: Fyn (UniProt P06241); test: as above
Sequence of Fyn (P06241 whole entry, looked up): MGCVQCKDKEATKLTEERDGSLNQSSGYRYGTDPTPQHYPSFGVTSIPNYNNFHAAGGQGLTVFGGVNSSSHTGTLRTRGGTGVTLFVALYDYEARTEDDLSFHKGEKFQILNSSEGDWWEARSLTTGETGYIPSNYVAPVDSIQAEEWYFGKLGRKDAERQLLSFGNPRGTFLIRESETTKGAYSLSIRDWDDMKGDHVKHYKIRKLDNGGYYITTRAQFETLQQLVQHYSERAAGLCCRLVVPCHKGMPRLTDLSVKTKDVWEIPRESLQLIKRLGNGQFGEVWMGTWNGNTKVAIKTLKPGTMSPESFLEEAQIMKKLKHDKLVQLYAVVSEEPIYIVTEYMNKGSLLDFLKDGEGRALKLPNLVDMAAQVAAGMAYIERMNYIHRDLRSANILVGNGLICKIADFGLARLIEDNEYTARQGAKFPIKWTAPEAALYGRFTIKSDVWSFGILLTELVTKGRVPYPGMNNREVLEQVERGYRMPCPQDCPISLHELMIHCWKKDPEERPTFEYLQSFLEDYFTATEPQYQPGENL

[9] = biological target: Hck (UniProt P08631); test: as above
Sequence of Hck (P08631 whole entry, looked up): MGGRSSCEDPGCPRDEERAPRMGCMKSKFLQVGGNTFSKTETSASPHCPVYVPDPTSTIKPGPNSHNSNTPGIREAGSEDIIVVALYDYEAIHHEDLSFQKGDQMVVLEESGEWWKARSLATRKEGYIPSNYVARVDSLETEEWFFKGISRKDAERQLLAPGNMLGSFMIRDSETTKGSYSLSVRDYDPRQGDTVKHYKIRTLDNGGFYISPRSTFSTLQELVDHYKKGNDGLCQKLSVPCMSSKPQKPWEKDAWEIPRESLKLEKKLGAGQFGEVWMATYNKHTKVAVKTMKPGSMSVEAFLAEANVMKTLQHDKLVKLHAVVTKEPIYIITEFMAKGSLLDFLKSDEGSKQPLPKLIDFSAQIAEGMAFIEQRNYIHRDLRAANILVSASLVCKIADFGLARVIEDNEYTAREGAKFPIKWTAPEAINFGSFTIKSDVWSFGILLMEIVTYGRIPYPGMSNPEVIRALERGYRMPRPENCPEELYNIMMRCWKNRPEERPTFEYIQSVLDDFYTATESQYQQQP

[10] = biological target: Jak2 (UniProt O60674); test: as above
Sequence of Jak2 (O60674 whole entry, looked up): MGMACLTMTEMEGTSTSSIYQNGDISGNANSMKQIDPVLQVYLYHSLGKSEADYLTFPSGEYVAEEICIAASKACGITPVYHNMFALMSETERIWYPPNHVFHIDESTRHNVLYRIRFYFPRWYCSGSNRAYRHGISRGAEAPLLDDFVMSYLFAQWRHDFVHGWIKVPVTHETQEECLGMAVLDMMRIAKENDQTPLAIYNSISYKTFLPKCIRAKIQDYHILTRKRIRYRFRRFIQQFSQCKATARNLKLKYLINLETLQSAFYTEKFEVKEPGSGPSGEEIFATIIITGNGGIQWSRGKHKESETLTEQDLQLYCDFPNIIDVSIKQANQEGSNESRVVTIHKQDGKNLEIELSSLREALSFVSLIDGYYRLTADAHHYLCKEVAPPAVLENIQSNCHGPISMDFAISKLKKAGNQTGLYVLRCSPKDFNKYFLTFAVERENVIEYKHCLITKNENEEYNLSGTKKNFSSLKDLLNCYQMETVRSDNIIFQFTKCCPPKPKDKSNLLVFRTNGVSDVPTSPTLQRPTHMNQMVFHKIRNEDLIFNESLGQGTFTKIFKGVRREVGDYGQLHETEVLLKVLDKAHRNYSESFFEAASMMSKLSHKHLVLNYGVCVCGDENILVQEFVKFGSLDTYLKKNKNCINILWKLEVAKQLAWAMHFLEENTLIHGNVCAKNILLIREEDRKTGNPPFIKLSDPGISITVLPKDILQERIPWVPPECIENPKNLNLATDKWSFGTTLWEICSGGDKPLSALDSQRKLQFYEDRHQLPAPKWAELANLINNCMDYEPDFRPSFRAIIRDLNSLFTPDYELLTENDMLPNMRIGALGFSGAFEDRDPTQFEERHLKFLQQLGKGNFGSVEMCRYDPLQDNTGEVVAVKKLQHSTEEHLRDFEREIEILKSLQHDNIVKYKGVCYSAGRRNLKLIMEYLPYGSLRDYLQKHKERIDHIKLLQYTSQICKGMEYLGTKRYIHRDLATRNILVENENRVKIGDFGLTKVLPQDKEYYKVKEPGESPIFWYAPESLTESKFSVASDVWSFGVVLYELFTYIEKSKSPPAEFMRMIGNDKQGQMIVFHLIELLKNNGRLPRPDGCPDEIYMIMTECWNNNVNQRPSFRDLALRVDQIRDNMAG

[11] = biological target: MERTK (UniProt Q12866); test: as above
Sequence of MERTK (Q12866 whole entry, looked up): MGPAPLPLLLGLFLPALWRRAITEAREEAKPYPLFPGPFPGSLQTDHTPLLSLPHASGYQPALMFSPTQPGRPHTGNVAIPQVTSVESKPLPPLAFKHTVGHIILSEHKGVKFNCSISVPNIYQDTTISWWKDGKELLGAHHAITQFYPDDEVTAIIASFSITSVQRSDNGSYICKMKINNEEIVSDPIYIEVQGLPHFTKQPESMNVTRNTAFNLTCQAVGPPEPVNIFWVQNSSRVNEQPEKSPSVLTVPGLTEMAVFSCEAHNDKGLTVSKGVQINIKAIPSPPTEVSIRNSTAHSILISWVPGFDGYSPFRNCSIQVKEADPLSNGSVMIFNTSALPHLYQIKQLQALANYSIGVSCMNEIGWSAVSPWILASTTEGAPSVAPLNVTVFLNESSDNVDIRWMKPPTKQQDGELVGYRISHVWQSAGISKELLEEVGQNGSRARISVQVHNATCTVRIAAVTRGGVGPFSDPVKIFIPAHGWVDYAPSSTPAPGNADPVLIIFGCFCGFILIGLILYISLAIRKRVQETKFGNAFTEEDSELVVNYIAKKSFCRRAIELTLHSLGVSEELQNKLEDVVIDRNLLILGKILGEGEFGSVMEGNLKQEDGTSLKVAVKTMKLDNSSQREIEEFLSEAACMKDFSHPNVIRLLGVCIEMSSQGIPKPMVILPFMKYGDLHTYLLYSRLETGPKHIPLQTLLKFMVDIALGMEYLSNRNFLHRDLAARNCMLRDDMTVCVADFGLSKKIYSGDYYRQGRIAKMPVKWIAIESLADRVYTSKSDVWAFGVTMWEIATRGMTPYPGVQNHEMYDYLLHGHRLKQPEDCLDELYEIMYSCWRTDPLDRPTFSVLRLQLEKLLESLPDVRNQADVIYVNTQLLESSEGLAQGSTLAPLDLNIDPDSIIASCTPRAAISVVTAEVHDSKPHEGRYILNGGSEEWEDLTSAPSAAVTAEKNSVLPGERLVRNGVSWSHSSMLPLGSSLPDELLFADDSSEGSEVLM

[12] = system: c-Abl (mouse); test: as above
[13] = system: c-Src; test: as above
[14] = biological target: Grb2 SH2 (UniProt P62993); test: SH2 binding enrichment of the phosphorylated peptide, bacterial display (enrichment ratio); higher = better substrate or ligand; peptides without Tyr show the background
[15] = biological target: SHP2-C SH2; test: as above
[16] = biological target: c-Src SH2; test: as above
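Wherever SH2 binding enrichment of the phosphorylated peptide, bacterial display is given: peptide library displayed on the E. coli surface as eCPX fusions, selected cells deep-sequenced, score is each peptide's frequency after selection divided by its frequency in the input.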
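Wherever phosphorylation enrichment, bacterial display is given: 11-residue human phosphosite peptides and single-mutation variants displayed on the E. coli surface, counted by deep sequencing, each peptide's frequency after selection divided by its frequency in the unselected input library; frequency after pTyr selection over input frequency; kinase dosed for 20-30% of maximal phosphorylation in three min.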

SH2 binding enrichment [14]	SH2 binding enrichment [15]	SH2 binding enrichment [16]	Sequence	phosphorylation enrichment [1]	phosphorylation enrichment [2]	phosphorylation enrichment [3]	phosphorylation enrichment [4]	phosphorylation enrichment [5]	phosphorylation enrichment [6]	phosphorylation enrichment [7]	phosphorylation enrichment [8]	phosphorylation enrichment [9]	phosphorylation enrichment [10]	phosphorylation enrichment [11]	phosphorylation enrichment [12]	phosphorylation enrichment [13]
0.894	0.645	0.571	WQQQSYLDSRI [CTNNB1_Y30_G34R]	0.675	0.444	0.473	0.484	0.496	0.455	0.793	0.465	0.476	0.623	0.515	0.482	0.4
0.969	0.489	0.602	KAWGIYDCQQP [CYP3A7_Y75_V71A]	1.73	8.32	4.21	0.53	0.852	3.52	1.56	7.28	6.67	1.12	5.53	1.12	4.8
8.96	1.18	2.42	TFSPPYFHRNC [HGD_Y333_R330S_YF]	1.81	0.268	1.08	0.535	0.83	0.483	0.808	0.363	0.539	2.21	0.718	0.878	1.01
0.916	0.613	1.42	ISKQGYDEAGP [ACTC1_Y364_E363G]	0.897	0.601	0.532	0.539	0.567	0.507	1.01	0.452	0.572	0.931	0.666	0.793	0.541
0.73	0.486	0.545	SSAETYSRMCL [NBEAL2_Y1835_R1839C]	0.84	0.649	0.616	0.426	0.669	1.01	0.851	0.526	0.859	0.695	0.561	0.849	0.708
1.15	1.31	0.715	FYRKVYHLASV [RBL1_Y796]	0.853	0.447	0.566	0.555	0.673	0.779	0.745	0.444	0.422	0.667	0.39	0.416	0.296
0.538	0.526	0.384	RRGMPYGGRGD [TGM1_Y312]	0.878	0.839	0.881	0.686	0.904	0.746	0.618	0.749	0.739	0.686	0.871	0.75	0.68
0.926	0.814	0.548	FSIDFYRVGGH [NTRK2_Y707_T704I_YF]	1.19	0.593	0.573	0.531	0.719	0.466	1.37	0.465	0.456	1.24	0.429	0.837	0.436
0.8	0.599	0.536	FGDTSYIPFRD [CDC14C_Y132_P131S]	0.659	0.424	0.533	0.517	0.496	0.391	0.672	0.443	0.443	0.676	0.452	0.546	0.518

More lines, now with the values behind:

Sequence	SH2 binding enrichment [14]	SH2 binding enrichment [15]	SH2 binding enrichment [16]	phosphorylation enrichment [1]	phosphorylation enrichment [2]	phosphorylation enrichment [3]	phosphorylation enrichment [4]	phosphorylation enrichment [5]	phosphorylation enrichment [6]	phosphorylation enrichment [7]	phosphorylation enrichment [8]	phosphorylation enrichment [9]	phosphorylation enrichment [10]	phosphorylation enrichment [11]	phosphorylation enrichment [12]	phosphorylation enrichment [13]
SILAVYSKDIF [PANK2_Y400_N404I_YF]	1.02	0.678	0.764	0.691	0.477	0.494	0.445	0.537	0.46	0.663	1.11	0.765	0.688	2.99	0.578	1.62
QLCVNYPGGFT [PROS1_Y259_YF]	0.73	0.613	0.538	1.45	0.792	0.697	0.698	0.904	0.692	1.61	0.675	0.85	0.907	0.552	0.835	0.37
FVIISYVLIIR [OR1D2_Y218]	4.69	4.04	1.89	0.994	0.561	0.325	0.672	0.727	0.566	0.733	0.517	0.508	0.503	0.527	0.457	0.517
AYQGKYTPSGQ [ALDOA_Y343_C339Y]	0.939	0.639	0.622	0.383	0.388	0.299	0.316	0.375	0.345	0.441	0.262	0.309	0.545	0.337	0.384	0.35
PSQRCYVFFFS [PTEN_Y174_R173C_YF]	1.2	1.11	0.705	1.37	0.865	0.735	0.837	1.35	0.703	1.73	0.79	0.616	1.24	0.646	0.882	0.646
ADCRFYAFPQM [GAMT_Y223_YF]	0.778	0.653	0.526	2.44	3.25	3.79	0.719	1.03	6.04	1.57	0.76	0.92	1.45	7.18	2.39	1.35
RRGFLYDSDEE [MCM2_Y137_L135F]	0.802	0.564	0.455	0.629	0.397	0.686	0.429	0.458	0.501	0.761	0.512	0.764	0.812	0.589	0.679	0.625
EIEFLYNENMV [IARS1_Y680_T684M]	0.727	0.882	0.592	1.21	0.595	0.678	0.418	0.693	0.526	1.11	0.484	0.526	1.07	0.411	0.62	0.421
AGEGTYALDSE [PES1_Y265]	0.928	0.435	0.617	0.972	0.576	0.511	0.484	0.643	0.5	1.04	0.984	0.528	0.878	0.434	0.816	0.935
SEKVVYQRFTE [NCF1_Y41_R42Q]	0.676	1.72	0.618	0.675	0.457	0.394	0.574	0.542	0.508	0.763	0.889	0.959	0.931	0.379	1.07	1.93
IKIMGYSIRTI [IDS_Y490]	1.4	1.02	0.816	0.991	0.494	0.52	0.424	0.657	0.478	1.01	0.452	0.457	0.862	0.455	0.822	0.571
GTATAYLCRVK [ALPL_Y117_G120R]	1.07	0.771	0.525	0.678	0.48	0.506	0.471	0.514	0.517	0.804	0.404	0.389	0.578	0.363	0.595	0.399
HSDFQYGQRSQ [PKP2_Y168_S169G_YF]	0.737	0.675	0.394	0.641	0.632	0.628	0.495	0.639	0.78	1.25	0.766	0.587	0.727	0.511	0.509	0.682
DGPVNYEEFVQ [CALM2_Y139_Q136P]	0.848	0.656	0.418	1.17	1.27	1.08	0.514	0.725	0.601	1.12	0.482	0.529	1.18	0.474	0.748	0.532
FNNFGYGNDGF [HNRNPH3_Y161_YF]	0.936	0.704	0.554	0.828	0.403	0.518	0.546	0.557	0.499	0.939	0.505	0.447	0.937	0.491	0.606	0.507
DKHGQYLIGHG [EPHB4_Y581]	0.905	0.565	0.485	0.652	0.397	0.376	0.482	0.576	0.465	0.645	0.449	0.475	0.599	0.378	0.525	0.436
AVLVQYFMEHH [PTPN11_Y80_E76V_YF]	1.37	1.51	1.19	0.934	0.638	0.613	0.466	0.813	0.484	1.15	0.503	0.448	1.07	0.429	0.638	0.421
SVVGPYEPPEV [TP53_Y220_V218G]	0.935	0.618	0.523	1.14	0.579	0.526	0.432	0.69	0.498	1.05	0.403	0.505	0.855	0.409	0.728	0.441
ELANFYKLHHI [AK7_Y391_YF]	0.901	1.01	0.481	0.63	0.638	0.863	0.561	0.672	0.874	1.06	0.689	0.796	0.922	0.67	0.8	0.819
YCGYSYDDIPD [TMEM230_Y112_R108C]	0.988	1.43	10.6	2.47	0.818	0.954	1.53	1.57	1.95	1.34	0.932	0.799	1.36	1.03	0.926	1.75
